This experiment addresses mutant murine LIGHT (a.a. 79-82, EKLI, deleted), expressed on the cell surface (murine) (UniProt Q9QYH9). Description: cell-based or functional assay.

Sequence of LTβR-human Ig (Fc fusion) (P50284 31-223): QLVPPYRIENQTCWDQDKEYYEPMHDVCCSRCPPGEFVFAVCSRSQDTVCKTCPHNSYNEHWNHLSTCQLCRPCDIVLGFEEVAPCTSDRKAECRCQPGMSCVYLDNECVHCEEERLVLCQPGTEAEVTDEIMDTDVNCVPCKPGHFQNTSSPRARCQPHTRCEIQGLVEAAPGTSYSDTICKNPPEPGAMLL
Sequence of mutant murine LIGHT (a.a. 79-82, EKLI, deleted), expressed on the cell surface (murine) (Q9QYH9 other isoform, or with tags, fused parts or gaps mutant limits assumed): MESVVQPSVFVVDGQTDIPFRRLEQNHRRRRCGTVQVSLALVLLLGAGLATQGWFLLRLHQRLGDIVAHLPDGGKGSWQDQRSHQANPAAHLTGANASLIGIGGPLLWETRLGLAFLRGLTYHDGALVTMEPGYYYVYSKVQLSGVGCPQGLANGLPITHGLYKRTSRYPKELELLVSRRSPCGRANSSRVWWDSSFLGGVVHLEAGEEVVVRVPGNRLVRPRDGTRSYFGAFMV

With LTβR-human Ig (Fc fusion), the Incidence of tumor growth (Percentage), 10^6 Ag104L^d-LIGHT^m in C3B6F1 mice treated with LTβR-Ig was 100 % (6/6 mice).

The values are drawn from patent publication US20090092640A1.
